{"source": "patent US20120245117A1", "about": "“METHODS OF TREATING SQUAMOUS CELL LUNG CANCER WITH 4-IODO-3-NITROBENZAMIDE IN COMBINATION WITH GEMCITABINE AND CARBOPLATIN” (priority 2011, published 2012)", "origin": "cited, not measured here", "molecules": {"B1": {"name": "CP-751,871: an anti-IGF-1R monoclonal antibody (antibody, chains of the INN, looked up)", "heavy": "EVQLLESGGGLVQPGGSLRLSCTASGFTFSSYAMNWVRQAPGKGLEWVSAISGSGGTTFYADSVKGRFTISRDNSRTTLYLQMNSLRAEDTAVYYCAKDLGWSDSYYYYYGMDVWGQGTTVTVSSASTKGPSVFPLAPCSRSTSESTAALGCLVKDYFPEPVTVSWNSGALTSGVHTFPAVLQSSGLYSLSSVVTVPSSNFGTQTYTCNVDHKPSNTKVDKTVERKCCVECPPCPAPPVAGPSVFLFPPKPKDTLMISRTPEVTCVVVDVSHEDPEVQFNWYVDGVEVHNAKTKPREEQFNSTFRVVSVLTVVHQDWLNGKEYKCKVSNKGLPAPIEKTISKTKGQPREPQVYTLPPSREEMTKNQVSLTCLVKGFYPSDIAVEWESNGQPENNYKTTPPMLDSDGSFFLYSKLTVDKSRWQQGNVFSCSVMHEALHNHYTQKSLSLSPG", "light": "DIQMTQFPSSLSASVGDRVTITCRASQGIRNDLGWYQQKPGKAPKRLIYAASRLHRGVPSRFSGSGSGTEFTLTISSLQPEDFATYYCLQHNSYPCSFGQGTKLEIKRTVAAPSVFIFPPSDEQLKSGTASVVCLLNNFYPREAKVQWKVDNALQSGNSQESVTEQDSKDSTYSLSSTLTLSKADYEKHKVYACEVTHQGLSSPVTKSFNRGEC"}}, "test_system": "SqCLC", "settings": "SqCLC patients; combination with carboplatin/paclitaxel; cited from earlier work"}
{"molecule": "B1", "values": [{"measurement": "response rate", "result": "~78", "unit": "%"}, {"measurement": "toxicity", "result": "strong toxicity"}]}
